Source: patent publication US20160376363A1 (ALDER BIOPHARMACEUTICALS, published 2016)

Columns and labels:
human PACAP27 = molecular target: T1, human PACAP27 (human, C-terminal leucine is amidated; 125I-labelled in Example 10); assay: SPR (ProteOn XPR36), antibody amine-coupled to chip, peptide as analyte, 1:1 Langmuir fit
T1 construct: also called 125I-labelled PACAP27
T1 peptide: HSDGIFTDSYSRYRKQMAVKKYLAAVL

human PACAP38 = molecular target: T2, human PACAP38 (human, C-terminal lysine is amidated; N-terminally or C-terminally biotinylated in the HTRF and cell binding assays); assay: as above
T2 construct: Synthetic peptide (American Peptide; biotinylated forms from AnaSpec); also called PACAP 1-38; wild-type PACAP peptide (1-38)
T2 peptide: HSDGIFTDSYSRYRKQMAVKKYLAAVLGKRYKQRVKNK

- Kd (human PACAP27): 0.013 nM
- koff (human PACAP27): 1e-05 s⁻¹
- Kd (human PACAP38): 0.027 nM
- koff (human PACAP38): 1e-05 s⁻¹
B1: Ab21 (antibody, V domains shown)
VH: QSVEESGGRLVTPGTPLTLTCTVSGIDLSSYYMTWVRQAPGKGLEWVGFIDAGGSAYYATWAKGRFTISKASTTVDLKITSPTTEDTATYFCARDLDLWGPGTLVTVSS
VL: AAVLTQTPSPVSAAVGGTVSISCKSSESVYGDYLAWFQQKPGQPPKQLIYDASTLASGVPSRFKGSGSGTQFTLTISGVQCDDAATYYCAGGYVSAGVAFGGGTEVVVKR
